The nature of the data set: label from the status in PepcDB records.
On to “MVKVYAPASSANMSVGFDVLGAAVTPVDGTLLGDVVSVEAADHFRLHNLGRFADKLPPEPRENIVYQCWERFCQALGKTIPVAMTLEKNMPIGSGLGSSACSVVAALVAMNEHCGKPLNDTRLLALMGELEGRISGSIHYDNVAPCFLGGMQLMIEENGIISQ”, for which the protein production entry is “failed”.

In the case of “MVKWYKTYLEVYGKSFDEISDDSIRKVKRQLKERQNDSPLVSVVLIAHNEERHLISCIWSLSENHCHFPIEIIAVNNNSTDKTEEILKSLGVTYYNETKKGPGYARQCGLDHAKGKYHICIDADTLYPPHYIETHVKYLMNPKVACTFSLWSFMVDERHSRFGLWCYEGLRDIYLRLQAIQRPELCVRGMAFSFNTEIGRRFGFRTDIIRGEDGSLALAMKPYGKIVFITSRKARVLTSNGTLNSEGSLIDNIWIRVIKALKEITGLFIKKTAYKDKDSNLIKLEHHHHHH”, the protein production result was “failed”.

Turning to “MVLAVLFPTYPAYEFAGYALPGVSTTLGVFSLTVLTNTVLFALAYPLVLGARNALTGNVSVVMFVGRRVAADDLATVHGSLLESSAGGFTRSGLDLDALRMYLRWRDCTLADLRSDPGLRHPDTLPDTPGDPTDGAVATDGSGDPWGAAAFLADIDHSAYGTTPAQLRDGLDLITDHDDVWVTPGVPFLLPLFAGLVVALTFGDVLFYVLDALGFAAA”, the protein production entry is on record as “failed”.

Consider “MVLEHCRDAIESHGVETDIISLRGMKIESCRACLSCAKKHRCRIDDGLNDIIDRIRDSEGFIVATPVYFGTARGDLMAALQRIGMVSRASDGFLSWKVGGPIAVARRGGHTATIQELLMFYFINDMIVPGSTYWNMVFGWAPGEVEDDSEGIETIRRFGENVAELIKRINGGSLEHHHHHH”, for which the protein production entry is “failed”.

With “MVLLSIDFASLHTILESLYNEMMPLCEDMLGVAKGVAGLGALFYVALRVWQSMARAEPVDVYPLLRPFALGICILLFPTLVLGTMNSILSPIVQGTHRMLEGQTLDMQQYRAQKDRLEREAMMRNPETAYLVSDEEFDRQLDELGWSPGDAATRLGMYMEVGMYNLEKSIRDAFRSLLELLFAAASLLIDTVRTFFLVVLSVLGPIAFSISVWDGLQSTLGQWFTRYISVYLWLPVSDLFSCMLAKIQVLMLQNDIAELQGNPDYSLDNSNCVYIIFMLIGIVGYFTVPTVSGWIVQAGGGGNYSRNLNRTATKAGGFTAGAGGAALGNIGGRIRGK”, the protein production result is listed as “failed”.

Regarding “MVLPPVFYLARMWLMSQDSRVFFRIFFGIGLVLILISVVIFYNQFTYSKDAIHTEGVIVDTVWHSSHSHRTGKNGSWYPVVAFRPTPDYTLIFNSSIGSDFYEDSEGDKVNVYYSPGHPEKAEINNPWVNFFKWGFIGIMGVIFISVGLLISMPSSKKTRRKRKSRP”, the protein production entry is “failed”.

Regarding “MVLQKLPLIGLLLLLTIVASPANADGPVCPPSNKLSRASFPEGFLFGTATAAYQVEGAINETCRGPALWDIYCRRYPERCNNDNGDVAVDFFHRYKEDIQLMKNLNTDAFRMSIAWPRIFPHGRKEKGVSQAGVQFYHDLIDELIKNGITPFVTVFHWDTPQDLEDEYGGFLSERIVKDFREYADFVFQEYGGKVKHWITFNEPWVFSHAGYDVGKKAPGRCSSYVNAKCQDGRSGYEAYLVTHNLLISHAEAVEAYRKCEKCKGGKIGIAHSPAWFEAHDLADSQDGASIDRALDFILGWHLDTTTFGDYPQIMKDIVGHRLPKFTTEQKAKLKASTDFVGLNYYTSVFSNHLEKPDPSKPRWMQDSLITWESKNAQNYAIGSKPLTAALNVYSRGFRSLLKYIKDKYANPEIMIMENGYGEELGASDSVAVGTADHNRKYYLQRHLLSMQEAVCIDKVNVTGYFVWSLLDNFEWQDGYKNRFGLYYVDFKNNLTRYEKESGKYYKDFLSQGVRPSALKKDEL”, the protein production result is “failed”.

As to “MVLYFIGLGLYDERDITVKGLEIAKKCDYVFAEFYTSLMAGTTLGRIQKLIGKEIRVLSREDVELNFENIVLPLAKENDVAFLTPGDPLVATTHAELRIRAKRAGVESYVIHAPSIYSAVGITGMHIYKFGKSATVAYPEGNWFPTSYYDVIKENAERGLHTLLFLDIKAEKRMYMTANEAMELLLKVEDMKKGGVFTDDTLVVVLARAGSLNPTIRAGYVKDLIREDFGDPPHILIVPGKLHIVEAEYLVEIAGAPREILRVNV”, the protein production result is listed as “not failed”.

Consider “MVMFRGHLLCFGLGYSALRLARGLLRDGWRVSGTCRSEEKRQALSAQGITAFVFDETTPLPAEAWTGVTHVLVSIPPGPDGDPVLALHRADLLALRPEWLGYFSTTGVYGDTGGAWVDEGKPVRPTQERSKRRVAAEEDWLDLWRDEDLPVHLLRLAGIYGPGRSVFDQLRAGTAKRIIRPGHAFSRIHVDDIGLITRASMADPDPGAIYNLVDDEPAEPSEVMDHACALLGIDPPPAQSFDEVAPGLSPMALSFWADNRKVSNERLWDDLRLRLLYPTFRQGLEAILAEETGRVAEGPPVYKEASDC”, for which the protein production result is “failed”.

Turning to “MVMPVKKVEKNILVLHGADKMFELVDKVEDYPHFLPWYSKTEVIGRSGNELKARLFMDYMHVRQSFATHNRNIPGREIRMELLEGPFKTLRGTWKFIDLGDDMCKIEFNLEYDFSNAVLSALISPVFNHLSVTLVEAFVKEADRRYA”, the protein production result is reported as “failed”.

As to “MVNEYKRIVLLRGLECINKHYFSLFKSLLARDLNLERDNQEQYTTIQIANMMEEKFPADSGLGKLIEFCEEVPALRKRAEILKKERSEGETSLEKNGQEAGPATPTSTTSHMLASERGETSATQEETSTAQAGTSTAQAGTSTAQAGTSTA”, the protein production result is on record as “not failed”.

For the sequence “MVNFAVWLDGVILKIDLTDSLYKIYKGDQISLPITYEVNDDWIKVYDRIREANLAILSPYDEITTKAILERINLKPTYVIANRGKTKPSREPYRILIEVTGWDPLQVVTLASSPLDLLSARFFDSRIKVICVKRYQDCSKYSPFLYSENLDDAISSLKRLKIIR”, the protein production entry is reported as “failed”.

On to “MVNLMILSGIVLLTCIISSKIFYKWGVPVLLVFIIIGMLFGSDGIGGIYFDNYNITYSLSSIALVFIMFYGGFCTEWKKARSVAIPSIMLSTLGVIITAGLTGLFCHFVLKTSIFEGLLLGCIVASTDAASVISILRSRNLKLKNNIDTLVEFESGSNDPTAYMLTSVMLIFITSNESVGIGLLGMIFKQIVFGVTVGLFLSKLAVFILRKVEFEIEGLYPIFTITVAILAYSISEFLGGNGYLSVFIAGIVMGNSKIPHKKSLNHFFDGLSWIMQIILFFMLGLLAFPSQLPSIAFEGIAISIFLILVGRPIAVFTILSWFKVPIKEQMFISWVGLRGAGSLVFAIYAITKTSAIENDIFHIIFFIALFSVAIQGTLIPWFAKKLDLICYEDDNHEDNMKNNIKDYIFEVKVGENNKVVNKAIMDSEIPDEILIVMIKRDNKVVIPKGFTIIKPNDTLVLTSENNEIMNSFLDEIR”, for which the protein production entry is given as “failed”.

Turning to “MVNQNLTATEIGFTHEDFAALLDKYDYHFSPGDVVPGTVFSIEPRGALIDIGAKTAAYIPIQEMSINRVDAPEEVLQSNETREFFILTDENEDGQLTLSIRRIEYMRAWERVRQLQAEDATVRSGVFATNRGGALVRIEGLRGFIPGSHISTRKPKEELVGEELPLKFLEVDEERNRLVLSHRRALVERKMNRLEVGEVVIGTVRGIKPYGAFIDIGGVSGLLHISEISHEHIDTPHSVFNVNDEVKVMIIDLDAERGRISLSTKQLEPEPGDMIKNRDLVYDKAEEMAAKYREQLLAKQQGITLPAEGAEDLIEEEIPPATEDAVAEEEIVAVEEIPAAIEE”, the protein production entry is on record as “failed”.

As for “MVPDWEEVLGLWRAGRYYEVHEVLEPYWLKATGEERRLLQGVILLAAALHQRRLGRPGLRNLRKAEARLEGLPCPLMGLDWRSLLQEARRRLGA”, the protein production result was “not failed”.

Regarding “MVPHHWASLWNRQLALQTSVRRRLRKEIDLIRFLKATAAADELTGIVGIAAQVIEALGEWGVGLLTLLETVFPPIPSEVILPLAGFLTQQGSMNLILVFVTSTLGAYAGAMLLYWLGYKVGLERSIKLLSKLPLVDREDFEKAAEWFERHGKSAIFFGRLLPGVRSLISLPAGAERMNLATFSVFTVAGTGLWNALLIGAGALLGKQYHLVDQYSRFLNYAVYAGLAALLVWLIIRRVKKRKESTR”, the protein production result is reported as “failed”.

Turning to “MVPHIDGLFLRDVEAVLTAPDRADLPVLNPGLGTWVDKTTVTWFKFNHQLAVTIGDILQRNFHHAWPTYRMIPVVFKASTLCMHTWDSRHTLTVWTQFNLVARTLYRDNMRAMKRRWARGLDKSRWMTTTVWNDLVDMFTEFGPDDVGFMS”, the protein production result is “failed”.

Take “MVPRVPQPGIWCPAVTFFDSKTDTLDLASQERYYAYLARSGLTGLVILGTNAEAFLLTREERAQLIATARKAVGPDFPIMAGVGAHSTRQVLEHINDASVAGANYVLVLPPAYFGKATTPPVIKSFFDDVSCQSPLPVVIYNFPGVCNGIDLDSDMITTIARKNPNVVGVKLTCASVGKITRLAATLPPAAFSVFGGQSDFLIGGLSVGSAGCIAAFANVFPKTVSKIYELYKAGKVDQAMELHRKAALAESPCKSGIATTKYAAAIFSAKAAGIEDAEEKLRPRKPYDPPSEAAKQEVRKVMAEVAAIEAGLS”: the protein production result was “not failed”.

Regarding “MVQAHGGRSRAQPLTLSLGAAMTQPPPEKTPAKKHVRLQERRGSNVALMLDVRSLGAVEPICSVNTPREVTLHFLRTAGHPLTRWALQRQPPSPKQLEEEFLKIPSNFVSPEDLDIPGHASKDRYKTILPNPQSRVCLGRAQSQEDGDYINANYIRGYDGKEKVYIATQGPMPNTVSDFWEMVWQEEVSLIVMLTQLREGKEKCVHYWPTEEETYGPFQIRIQDMKECPEYTVRQLTIQYQEERRSVKHILFSAWPDHQTPESAGPLLRLVAEVEESPETAAHPGPIVVHCSAGIGRTGCFIATRIGCQQLKARGEVDILGIVCQLRLDRGGMIQTAEQYQFLHHTLALYAGQLPEEPSP”, the protein production result is recorded as “failed”.

Turning to “MVQAQTRDQIVAAADELFYRQGFAQTSFVDISAAVGISRGNFYYHFKTKDEILAEVIRLRLARTAQMLADWQGTGDSPRARIASFIDLMIMNRAKITRYGCPVGSLCTELSKLDHAAQGQANGLFTLFRDWLQRQFAEAGCTTEAPALAMHLLARSQGAATLAQSFHDEGFLRSEVADMHRWLDNTLPMTT”, the protein production result is “not failed”.

Regarding “MVQEPTQDHLIGTTVDGRYTVRSRLASGGMSTVYLATDQRLERDVALKVLHPHLANDPTFLERLSREAKAAASLSHPHIVGVLDQGEDGTIAYLVMEYVKGHTLRDTLNEQGALQPRLALALIDPVIEGLAAAHRSGLIHRDVKPENVLIADDGRIKVGDFGLARAISANTSTGALIGTVAYLAPELVLGQPADARSDIYSAGIMLYEMLTGKQPYAGDSPIQVAYQHVNAAVGRPSDAAPGLAEDLDELVQWCTAVDAENRPVDGTALLTELRHIRTTLTDEDLDRRQAPSQPPGSPAAATAAAALGGPGGNPTEAIPATASPTEMISHQSNPTTIMAAAGSGRPQTAAVGAVNHEVVRQPGKRELKRLERQEIKDRARAAATPSRPLREGNPRRRGIIWTIVIVILATLAASAGWFFGMGPGSPGTVPDVKNKTVAEAQQLLRTAGFQSEPKDVFDDDILAGLAVGTEPESGAEVRKFQPITLFVSKGAQLFALPTLTGGSLDEAKTALNAAEMALGNVTQAFDEKVPAGVVISQDPAKGTEVRHGTPVSLVVSKGPQPIPVPDVRGLAQDAAVKALQDAGLTAVIAPETVNDKTVPKGAVVSQVPANGTLVRGEAVTLTVSKGPKLVKVPSFIGKQADEAEKELKKLGFKVQVNKVLGGFFGTVRDQNPVNTEIPEDSVVTLTVV”, the protein production entry is given as “failed”.

In the case of “MVQHLTAEEIIQYISDAKKSTPIKVYLNGNFEGITYPESFKVFGSEQSKVIFCEADDWKPFYEAYGSQFEDIEIEMDRRNSAIPLKDLTNTNARIEPGAFIREQAIIEDGAVVMMGATINIGAVVGEGTMIDMNATLGGRATTGKNVHVGAGAVLAGVIEPPSASPVIIEDDVLIGANAVILEGVRVGKGAIVAAGAIVTQDVPAGAVVAGTPAKVIKQASEVQDTKKEIVAALRKLND”, the protein production entry is reported as “not failed”.

(Values after a protein production outcome set (Wang et al. 2014).)
